Results as given in patent US20150175708A1 (Eli Lilly, published 2015).

B1: anti-MET/EGFR multifunctional antibody NH-YK (bispecific antibody, human IgG4 S228P, kappa, F234A L235A)
heavy: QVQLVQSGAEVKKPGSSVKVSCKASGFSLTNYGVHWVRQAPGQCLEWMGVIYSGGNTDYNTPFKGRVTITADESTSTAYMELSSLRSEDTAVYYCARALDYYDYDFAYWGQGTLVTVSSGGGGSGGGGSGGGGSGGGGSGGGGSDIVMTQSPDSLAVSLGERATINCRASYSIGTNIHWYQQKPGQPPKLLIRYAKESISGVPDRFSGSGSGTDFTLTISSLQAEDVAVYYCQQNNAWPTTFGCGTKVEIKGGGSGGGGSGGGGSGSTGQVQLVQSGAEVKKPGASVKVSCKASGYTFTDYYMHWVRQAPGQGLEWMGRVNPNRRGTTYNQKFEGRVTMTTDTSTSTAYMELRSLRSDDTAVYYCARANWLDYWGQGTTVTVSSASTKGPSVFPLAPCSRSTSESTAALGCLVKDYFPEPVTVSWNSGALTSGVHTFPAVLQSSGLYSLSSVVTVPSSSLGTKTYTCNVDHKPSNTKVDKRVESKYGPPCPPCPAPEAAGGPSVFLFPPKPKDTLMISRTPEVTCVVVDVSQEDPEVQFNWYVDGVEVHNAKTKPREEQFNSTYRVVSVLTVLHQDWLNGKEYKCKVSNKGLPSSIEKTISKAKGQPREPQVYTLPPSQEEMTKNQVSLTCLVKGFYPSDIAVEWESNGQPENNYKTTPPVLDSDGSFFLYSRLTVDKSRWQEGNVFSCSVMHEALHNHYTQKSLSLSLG
light: DIQMTQSPSSLSASVGDRVTITCSVSSSVSSIYLHWYQQKPGKAPKLLIYSTSNLASGVPSRFSGSGSGTDFTLTISSLQPEDFATYYCQVYSGYPLTFGGGTKVEIKRTVAAPSVFIFPPSDEQLKSGTASVVCLLNNFYPREAKVQWKVDNALQSGNSQESVTEQDSKDSTYSLSSTLTLSKADYEKHKVYACEVTHQGLSSPVTKSFNRGEC
notes: Tetravalent: anti-MET C8-H241 human IgG4 with an anti-EGFR YK scFv fused by a glycine-rich linker to the N-terminus of each heavy chain
B2: anti-MET/EGFR multifunctional antibody NH-H9 (bispecific antibody, human IgG4 S228P, kappa, F234A L235A)
heavy: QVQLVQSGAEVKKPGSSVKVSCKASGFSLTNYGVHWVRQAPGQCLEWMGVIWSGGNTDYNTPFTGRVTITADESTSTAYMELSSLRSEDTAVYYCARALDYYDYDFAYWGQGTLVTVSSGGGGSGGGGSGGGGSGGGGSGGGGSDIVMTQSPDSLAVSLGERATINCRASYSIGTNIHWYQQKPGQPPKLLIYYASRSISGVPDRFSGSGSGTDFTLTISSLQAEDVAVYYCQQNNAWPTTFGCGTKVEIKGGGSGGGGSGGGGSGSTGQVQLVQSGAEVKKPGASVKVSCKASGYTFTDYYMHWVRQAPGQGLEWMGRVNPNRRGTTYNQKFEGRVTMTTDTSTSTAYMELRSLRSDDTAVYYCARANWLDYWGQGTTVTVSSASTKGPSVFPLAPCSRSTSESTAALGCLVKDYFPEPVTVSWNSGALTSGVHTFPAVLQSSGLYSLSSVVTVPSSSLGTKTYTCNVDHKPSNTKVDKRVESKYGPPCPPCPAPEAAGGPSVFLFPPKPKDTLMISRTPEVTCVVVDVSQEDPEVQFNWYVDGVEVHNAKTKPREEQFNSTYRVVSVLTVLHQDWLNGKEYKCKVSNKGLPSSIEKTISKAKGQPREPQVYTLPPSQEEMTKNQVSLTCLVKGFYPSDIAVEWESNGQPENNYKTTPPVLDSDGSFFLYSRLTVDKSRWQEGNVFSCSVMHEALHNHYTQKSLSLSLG
light: B1 light
notes: Tetravalent: anti-MET C8-H241 human IgG4 with an anti-EGFR H9 scFv fused to the N-terminus of each heavy chain
B3: anti-MET/EGFR multifunctional antibody H9 (bispecific antibody, human IgG4 S228P, kappa, F234A L235A)
heavy: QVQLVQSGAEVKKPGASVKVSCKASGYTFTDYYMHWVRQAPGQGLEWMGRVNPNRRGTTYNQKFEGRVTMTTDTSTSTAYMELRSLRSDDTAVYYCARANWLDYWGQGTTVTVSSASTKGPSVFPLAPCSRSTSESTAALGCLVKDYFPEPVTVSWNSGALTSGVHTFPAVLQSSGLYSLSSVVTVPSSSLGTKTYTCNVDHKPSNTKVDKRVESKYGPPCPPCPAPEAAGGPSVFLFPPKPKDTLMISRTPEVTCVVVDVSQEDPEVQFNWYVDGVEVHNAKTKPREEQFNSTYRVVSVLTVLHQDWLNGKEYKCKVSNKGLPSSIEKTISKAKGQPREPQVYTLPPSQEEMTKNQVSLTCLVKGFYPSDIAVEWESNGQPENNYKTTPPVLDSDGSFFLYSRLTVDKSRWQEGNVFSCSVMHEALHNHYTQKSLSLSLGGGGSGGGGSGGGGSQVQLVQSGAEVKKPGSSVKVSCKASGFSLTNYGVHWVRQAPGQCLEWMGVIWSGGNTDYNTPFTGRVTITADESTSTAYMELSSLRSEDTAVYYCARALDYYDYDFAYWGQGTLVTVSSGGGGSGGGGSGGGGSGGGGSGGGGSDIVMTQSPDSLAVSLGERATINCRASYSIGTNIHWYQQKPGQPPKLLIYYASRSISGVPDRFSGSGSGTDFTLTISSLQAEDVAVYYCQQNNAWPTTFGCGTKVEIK
light: B1 light
notes: Tetravalent: anti-MET C8-H241 human IgG4 with an anti-EGFR H9 scFv fused to the heavy chain C-terminus
B4: anti-MET/EGFR multifunctional antibody YK (bispecific antibody, human IgG4 S228P, kappa, F234A L235A)
heavy: not shown
light: B1 light
notes: Tetravalent: anti-MET C8-H241 human IgG4 with an anti-EGFR YK scFv fused to the heavy chain C-terminus

What was measured:
[1] = molecular target: T1, MET on the cell surface of human tumor cell lines (human, UniProt P08581 25-1390); experiment: cell-based or functional assay
T1 sequence (P08581 25-1390): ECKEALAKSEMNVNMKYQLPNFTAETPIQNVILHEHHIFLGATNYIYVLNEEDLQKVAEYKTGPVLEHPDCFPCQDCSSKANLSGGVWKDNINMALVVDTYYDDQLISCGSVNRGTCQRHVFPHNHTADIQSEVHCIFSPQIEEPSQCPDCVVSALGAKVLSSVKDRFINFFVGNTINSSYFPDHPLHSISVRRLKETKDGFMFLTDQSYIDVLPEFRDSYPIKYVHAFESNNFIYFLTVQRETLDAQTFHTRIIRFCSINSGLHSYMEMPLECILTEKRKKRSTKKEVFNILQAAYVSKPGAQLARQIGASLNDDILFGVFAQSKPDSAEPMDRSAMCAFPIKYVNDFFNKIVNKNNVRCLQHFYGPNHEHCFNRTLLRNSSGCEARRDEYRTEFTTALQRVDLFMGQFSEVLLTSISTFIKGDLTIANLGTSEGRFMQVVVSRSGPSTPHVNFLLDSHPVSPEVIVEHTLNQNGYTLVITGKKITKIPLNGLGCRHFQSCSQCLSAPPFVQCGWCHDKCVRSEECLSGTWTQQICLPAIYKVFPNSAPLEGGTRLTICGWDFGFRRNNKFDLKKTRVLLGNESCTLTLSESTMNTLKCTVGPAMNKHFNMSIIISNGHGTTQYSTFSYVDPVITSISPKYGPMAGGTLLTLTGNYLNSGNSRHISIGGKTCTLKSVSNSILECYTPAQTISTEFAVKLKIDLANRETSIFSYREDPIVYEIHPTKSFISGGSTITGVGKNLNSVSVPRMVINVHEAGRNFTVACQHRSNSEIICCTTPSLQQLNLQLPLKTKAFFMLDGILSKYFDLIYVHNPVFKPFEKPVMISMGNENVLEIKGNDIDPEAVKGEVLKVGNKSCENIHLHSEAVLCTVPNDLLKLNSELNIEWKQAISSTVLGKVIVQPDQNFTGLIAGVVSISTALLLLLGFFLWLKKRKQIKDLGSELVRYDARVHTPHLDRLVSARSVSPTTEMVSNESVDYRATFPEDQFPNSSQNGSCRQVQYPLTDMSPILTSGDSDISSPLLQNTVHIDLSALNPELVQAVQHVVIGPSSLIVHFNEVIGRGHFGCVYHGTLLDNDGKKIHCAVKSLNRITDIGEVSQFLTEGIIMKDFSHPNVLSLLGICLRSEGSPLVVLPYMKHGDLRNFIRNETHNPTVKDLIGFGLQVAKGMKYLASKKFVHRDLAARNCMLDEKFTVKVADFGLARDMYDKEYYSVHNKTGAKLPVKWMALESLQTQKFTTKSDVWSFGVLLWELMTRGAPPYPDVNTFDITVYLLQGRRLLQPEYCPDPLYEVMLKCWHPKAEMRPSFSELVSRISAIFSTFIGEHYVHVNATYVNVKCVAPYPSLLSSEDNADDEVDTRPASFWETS

[2] = molecular target: extracellular domain of human MET (MET-ECD) (human, UniProt P08581 25-932); experiment: SPR (Biacore), antibody captured on protein A chip, MET-ECD in solution, 25 C, 1:1 model
Chain of extracellular domain of human MET (MET-ECD) (P08581 25-932): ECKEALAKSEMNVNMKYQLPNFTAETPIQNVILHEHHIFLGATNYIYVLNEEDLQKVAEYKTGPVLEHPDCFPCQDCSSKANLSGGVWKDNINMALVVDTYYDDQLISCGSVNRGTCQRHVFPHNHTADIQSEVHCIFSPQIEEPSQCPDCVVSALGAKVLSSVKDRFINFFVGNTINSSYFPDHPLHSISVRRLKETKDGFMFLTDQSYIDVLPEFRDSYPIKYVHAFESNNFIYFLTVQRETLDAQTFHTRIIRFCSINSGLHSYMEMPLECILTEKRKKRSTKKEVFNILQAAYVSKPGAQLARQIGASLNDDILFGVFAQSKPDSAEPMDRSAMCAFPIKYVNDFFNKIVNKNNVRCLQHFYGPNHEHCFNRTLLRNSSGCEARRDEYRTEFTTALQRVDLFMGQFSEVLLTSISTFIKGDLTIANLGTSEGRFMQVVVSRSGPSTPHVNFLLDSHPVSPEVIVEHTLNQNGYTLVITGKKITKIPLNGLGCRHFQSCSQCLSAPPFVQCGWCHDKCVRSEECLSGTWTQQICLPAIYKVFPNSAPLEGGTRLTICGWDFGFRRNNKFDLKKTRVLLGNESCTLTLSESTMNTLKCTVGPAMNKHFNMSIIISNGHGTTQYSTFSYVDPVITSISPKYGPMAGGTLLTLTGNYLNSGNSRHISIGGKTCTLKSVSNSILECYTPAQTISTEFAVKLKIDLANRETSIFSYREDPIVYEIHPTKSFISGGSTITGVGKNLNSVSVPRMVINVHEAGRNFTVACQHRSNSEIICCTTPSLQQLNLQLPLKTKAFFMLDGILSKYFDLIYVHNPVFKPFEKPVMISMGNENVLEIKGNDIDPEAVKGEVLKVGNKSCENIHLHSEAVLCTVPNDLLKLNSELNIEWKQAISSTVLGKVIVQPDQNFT

[3] = molecular target: EGFR on the cell surface of human tumor cell lines (human, UniProt P00533 25-1210); experiment: cell-based or functional assay
[4] = molecular target: T2, human EGFR extracellular domain (EGFR-ECD) (human, UniProt P00533 25-645); experiment: SPR (Biacore), antibody captured on protein A chip, EGFR-ECD in solution, 25 C, 1:1 model
T2 construct: extracellular domain; also called human EGFR-ECD

[5] = molecular target: T1, MET on the cell surface of human tumor …; experiment: cell-based or functional assay; remark: listed apart in the source

Binder	average % of cell viability (CellTiter-Glo), H596 cells + 50 ng/mL HGF, antibody 0.4 nM [1]	average % of cell viability (CellTiter-Glo), H596 cells + 50 ng/mL HGF, antibody 1.2 nM [1]	average % of cell viability (CellTiter-Glo), H596 cells + 50 ng/mL HGF, antibody 3.7 nM [1]	average % of cell viability (CellTiter-Glo), H596 cells + 50 ng/mL HGF, antibody 11.1 nM [1]	average % of cell viability (CellTiter-Glo), H596 cells + 50 ng/mL HGF, antibody 33.3 nM [1]	average % of cell viability (CellTiter-Glo), H596 cells + 50 ng/mL HGF, antibody 100 nM [1]	Kd [2]	koff [2]	kon [2]	average % of cell viability, H1666 cells, antibody 0.02 nM [3]	average % of cell viability, H1666 cells, antibody 0.05 nM [3]	average % of cell viability, H1666 cells, antibody 0.14 nM [3]	average % of cell viability, H1666 cells, antibody 0.41 nM [3]	average % of cell viability, H1666 cells, antibody 1.23 nM [3]	average % of cell viability, H1666 cells, antibody 3.70 nM [3]	average % of cell viability, H1666 cells, antibody 11.11 nM [3]	average % of cell viability, H1666 cells, antibody 33.33 nM [3]	Kd [4]	koff [4]	kon [4]	further results
B1	113%	108%	104%	107%	101%	102%	0.84 nM	6.3e-05 s⁻¹	75000 M⁻¹ s⁻¹	106%	105%	87.2%	65.5%	45.6%	36.9%	31.9%	27.9%	0.19 nM	0.00075 s⁻¹	4e+06 M⁻¹ s⁻¹	average % of cell viability, H1666 cells, antibody 100 nM [3]: 26.4%; % cell surface MET remaining, H441 cells, 50 nM antibody overnight, FACS [5]: 58%; AVG of MFI (staining of cell surface MET), H441 cells, 50 nM antibody overnight, FACS [5]: 44.9 MFI
B2	107%	102%	103%	105%	102%	102%	0.75 nM	7.9e-05 s⁻¹	105000 M⁻¹ s⁻¹	105%	100%	77.8%	52.9%	38.6%	31.6%	26.6%	24.1%	0.1 nM	0.00018 s⁻¹	1.8e+06 M⁻¹ s⁻¹	average % of cell viability, H1666 cells, antibody 100 nM [3]: 23.1%
B3	–	–	–	–	–	–	1.15 nM	0.000109 s⁻¹	95000 M⁻¹ s⁻¹	–	–	–	–	–	–	–	–	0.32 nM	0.00018 s⁻¹	570000 M⁻¹ s⁻¹	–
B4	–	–	–	–	–	–	0.26 nM	3.3e-05 s⁻¹	126000 M⁻¹ s⁻¹	–	–	–	–	–	–	–	–	0.44 nM	0.00057 s⁻¹	1.3e+06 M⁻¹ s⁻¹	–
